Changes are numbered by the printed parent chain.
Key:
human serum albumin [1] = molecular target: T1, human serum albumin (human, UniProt P02768 25-609); assay: BIAcore 2000, HSA immobilised on CM5 chip, 40-220 nM ABDwt
T1 construct: Amine-coupled to a CM5 chip, coupled to Sepharose, or loaded in solution onto the ABD columns; also called HSA

human serum albumin [2] = molecular target: T1, human serum albumin; assay: BIAcore 2000, HSA immobilised on CM5 chip, 200-600 nM ABDmut
human serum albumin [3] = molecular target: T1, human serum albumin; assay: Biacore 2000, HSA immobilised on a CM5 chip, analyte at 200 nM, 20 µl/min

B1: wild type Albumin Binding Protein (ABD) (other)
chain: MKAIFVLNAQHDEAVDANSLAEAKVLANRELDKYGVSDYYKNLINNAKTVEGVKALIDEILAALP
notes: Expressed in E. coli from pTrpABDT1T2; also called ABDwt; unmutated protein
**Q.** Which Ka (human serum albumin [1]) does the source give for B1 here?
**A.** The Ka was 6.9e+07 M⁻¹.

**Q.** And the koff (human serum albumin [1])?
**A.** The koff was 0.0013 s⁻¹.

**Q.** And the kon (human serum albumin [1])?
**A.** The kon was 90000 M⁻¹ s⁻¹.

B2: ABDmut (Asn28Leu, Asn42Asp, Asn45Asp, Asn46Lys variant of ABD) (designed binder)
chain: B1 chain with N28L, N42D, N45D, N46K
notes: Expressed in E. coli from pTrpABDmutT1T2; also called ABDstab; mutated ABD
**Q.** What does the source list for B2?
**A.** Ka (human serum albumin [2]): 1.5e+07 M⁻¹; koff (human serum albumin [2]): 0.0012 s⁻¹; kon (human serum albumin [2]): 18000 M⁻¹ s⁻¹

B3: ABDmut22-25-26 (designed binder)
chain: B1 chain with E22A, V25A, L26A, N28L, N42D, N45D, N46K
notes: also called 22-25-26 A; triple mutant of ABDmut
**Q.** Does B3 bind (human serum albumin [3])?
**A.** Result: binds

B4: ABDmut54-57-58 (designed binder)
chain: B1 chain with N28L, N42D, N45D, N46K, K54A, I57A, D58A
notes: also called 54-57-58 A; ABDmutS4-57-58
**Q.** Does B4 bind (human serum albumin [3])?
**A.** Result: binds

Reference: US20050100970A1 (Affibody, published 2005)
